{"source": "patent US20160264651A1", "about": "(Hoffmann-La Roche, published 2016)", "binders": {"B1": {"name": "2B10 anti-TNC A2 Fab fragment (parental clone 2B10) (Fab, V domains shown)", "VH": "QVQLVQSGAEVKKPGSSVKVSCKASGGTFSSYAISWVRQAPGQGLEWMGGIIPIFGTANYAQKFQGRVTITADKSTSTAYMELSSLRSEDTAVYYCARLYGYAYYGAFDYWGQGTTVTVSS", "VL": "DIQMTQSPSSLSASVGDRVTITCRASQGIRNDLGWYQQKPGKAPKRLIYAASSLQSGVPSRFSGGGSGTEFTLTISSLQPEDFATYYCLQNGLQPATFGQGTKVEIK", "notes": "also called TNC A2 2B10 Fab fragment; Fab fragment 2B10"}, "B2": {"name": "2B10 anti-TNC A2 human IgG1 antibody (wild-type, non-glycoengineered) (antibody, V domains shown)", "VH": "B1 VH", "VL": "B1 VL", "notes": "also called IgG 2B10; 2B10 human IgG"}, "B3": {"name": "2B10_D1A2 affinity-matured anti-TNC A2 Fab clone (Fab, V domains shown)", "VH": "B1 VH", "VL": "B1 VL with D32V, A50D, S52Y", "notes": "From the VL sub-library; No KD is printed for this clone; also called clone 2B10_D1A2"}}, "key": {"[1]": {"target": "T1, TNC Fn5-A1-humanA2-A3 antigen construct (human TNC A2 domain in the context of domains A1 and A3), E. … (human, UniProt P24821 991-1075; P24821 1076-1257; P24821 1258-1350, limits assumed, biotinylated)", "T1 construct": "domain: fifth fibronectin type III domain (Fn5);domain: A1 and A2 domain;domain: A3 domain; Not glycosylated; also called Immob E. coli Ag", "T1 sequence (looked up)": "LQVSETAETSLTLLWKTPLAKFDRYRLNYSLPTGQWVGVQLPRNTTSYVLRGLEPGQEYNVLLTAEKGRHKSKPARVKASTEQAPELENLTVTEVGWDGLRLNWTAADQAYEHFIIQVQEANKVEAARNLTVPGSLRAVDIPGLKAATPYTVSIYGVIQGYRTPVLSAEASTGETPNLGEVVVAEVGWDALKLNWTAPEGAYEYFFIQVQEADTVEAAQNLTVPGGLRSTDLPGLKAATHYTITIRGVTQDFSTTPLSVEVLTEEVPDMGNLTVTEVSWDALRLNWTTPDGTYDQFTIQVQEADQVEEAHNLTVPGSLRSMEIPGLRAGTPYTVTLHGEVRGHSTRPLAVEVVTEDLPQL", "test": "SPR, Biacore T100, biotinylated antigen on streptavidin chip, Fab as analyte", "method": "(§1) The affinity of the TNC A2 2B10 Fab fragment as well as of the human IgG1 converted TNC A2 2B10 antibody was subsequently determined and confirmed for human, murine and cynomolgus TNC A2 domain by surface plasmon resonance using a BIACORE® T100 machine (GE Healthcare) at 25° C. For this purpose the biotinylated antigens (expressed in E. coli, antigen in context but not glycosylated) were immobilized on a streptavidin chip and the constructs were used as analytes. For immobilization the antigens were diluted with HBS-EP+ (GE Healthcare, 10 mM HEPES, 150 mM NaCl, 3 mM EDTA, 0.05% Surfactant P20, pH 7.4) to 0.1 μg/ml before injection at a flow rate of 10 μl/minute to achieve approximately 80 response units (RU) of coupled protein. The TNC A2 domain from man, mouse and cynomolgus monkey was expressed in the context of the domains A1 and A3. The antigen constructs comprising the fifth fibronectin type III domain of human TNC (Fn5), the A1 and A2 domain of either human, murine or cynomolgus TNC, and the A3 domain of human TNC (TNC Fn5-A1-human/murine/cynoA2-A3) are shown in SEQ ID NOs 99-104.\n(§2) For kinetics measurements, two-fold serial dilutions of Fab fragments (range between 1.56 nM to 100 nM) or IgG (range between 0.39 nM to 25 nM) were injected in HBS-EP+ at 25° C. at a flow rate of 50 μl/min. Association and dissociation times were 180 s and a regeneration with 10 mM glycine pH 1.5 for 60 s was performed between cycles. Association rates (kₒₙ) and dissociation rates (koff) were calculated using a simple one-to-one Langmuir binding model (BIACORE® T100 Evaluation Software version 1.1.1) by simultaneously fitting the association and dissociation sensorgrams. The equilibrium dissociation constant (KD) was calculated as the ratio koff/kₒₙ. See, e.g., Chen et al., J Mol Biol 293, 865-881 (1999)"}, "[2]": {"target": "T2, TNC Fn5-A1-murineA2-A3 antigen construct (murine TNC A2 domain in the context of domains A1 and A3), E. … (human; murine, UniProt P24821 991-1075; Q80YX1 1076-1257; P24821 1258-1350, limits assumed, biotinylated)", "T2 construct": "domain: fifth fibronectin type III domain (Fn5);domain: A1 and A2 domain;domain: A3 domain; also called Immob E. coli Ag", "T2 sequence (looked up)": "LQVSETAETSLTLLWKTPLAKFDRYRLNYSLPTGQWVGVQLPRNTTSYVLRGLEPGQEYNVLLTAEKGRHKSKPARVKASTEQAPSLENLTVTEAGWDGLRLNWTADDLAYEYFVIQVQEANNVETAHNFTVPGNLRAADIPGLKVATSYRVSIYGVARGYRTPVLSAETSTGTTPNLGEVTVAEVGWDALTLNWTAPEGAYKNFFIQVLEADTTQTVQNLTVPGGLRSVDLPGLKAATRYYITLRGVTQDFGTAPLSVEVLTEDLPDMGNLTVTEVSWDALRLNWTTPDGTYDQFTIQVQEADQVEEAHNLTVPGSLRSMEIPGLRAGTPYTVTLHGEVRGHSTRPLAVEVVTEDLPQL", "test": "SPR, Biacore T100, biotinylated antigen on streptavidin chip, Fab as analyte", "method": "as §1, §2"}, "[3]": {"target": "T3, TNC Fn5-A1-cynoA2-A3 antigen construct (cynomolgus TNC A2 domain in the context of domains A1 and A3), E. … (human; cynomolgus, UniProt P24821 991-1075; P24821 1258-1350)", "T3 construct": "also called Cyno TNC; Immob E. coli Ag", "test": "SPR, Biacore T100, biotinylated antigen on streptavidin chip, Fab as analyte", "method": "as §1, §2"}, "[4]": {"target": "T4, E. coli-expressed human TNC A2 with C-terminal avi-tag and 6xHis-tag, biotinylated (human, biotinylated in vivo upon expression (avi-tag))", "T4 construct": "Used for the selections and ELISA; also called hu TNC A2; biotinylated human TNC A2", "T4 chain": "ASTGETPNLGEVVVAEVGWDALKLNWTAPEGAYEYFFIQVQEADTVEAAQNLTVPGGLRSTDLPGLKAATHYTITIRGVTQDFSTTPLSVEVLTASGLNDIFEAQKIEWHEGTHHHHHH", "test": "ELISA, biotinylated human TNC-A2 on neutravidin plates, Fab supernatants detected by anti-Flag/HRP", "method": "Selections were carried out over 3 rounds using constant antigen concentrations at 100 nM. In round 2, capture of antigen:phage complexes was performed on neutravidin plates instead of streptavidin beads. Specific binders were identified by ELISA as follows using: 100 μl of 100 nM biotinylated human TNC-A2 was coated in each well of neutravidin plates. Fab-containing bacterial supernatants were added and binding Fabs were detected via their Flag-tags by using an anti-Flag/HRP secondary antibody. Once identified, clone 2B10 was bacterially expressed in a 0.5 litre culture volume, affinity purified and further characterized by SPR-analysis using BIACORE T100. See SEQ ID NOs: 56 and 60."}, "[5]": {"target": "T1, TNC Fn5-A1-humanA2-A3 antigen construct …", "test": "SPR, Biacore T100, biotinylated antigen on streptavidin chip, IgG as analyte (avidity)", "method": "as §1, §2"}, "[6]": {"target": "T2, TNC Fn5-A1-murineA2-A3 antigen …", "test": "SPR, Biacore T100, biotinylated antigen on streptavidin chip, IgG as analyte (avidity)", "method": "as §1, §2"}, "[7]": {"target": "T3, TNC Fn5-A1-cynoA2-A3 antigen construct …", "test": "SPR, Biacore T100, biotinylated antigen on streptavidin chip, IgG as analyte (avidity)", "method": "as §1, §2"}, "[8]": {"target": "T4, E. coli-expressed human TNC A2 with …", "test": "selection on human TNC A2, ELISA and ProteOn screening", "method": "Selections were carried out against E. coli expressed human TNC A2 which was cloned upstream an avi-tag and 6×his-tag (see SEQ ID NO: 97). The antigen was biotinylated in vivo upon expression. Selections have been carried out in solution as described for the primary TNC A2 selections using decreasing concentrations of human TNC A2 ranging from 100 to 2 nM. After identification of affinity-matured clones by ELISA, secondary screenings were carried out using a ProteOn XPR36 biosensor (Biorad) and kinetic rate constants and affinities were determined analyzing affinity-purified Fab preparations on the same instrument. KD was measured by surface plasmon resonance using a ProteOn XPR36 machine (Biorad) at 25° C. with antigens immobilized on NLC sensor chips (Biorad). Briefly, recombinant antigen was diluted to 10 μg/ml in PBS/0.005% Tween-20, pH 7.4 and injected at […] for 100 to 300 s to achieve approximately 200-800 response units (RU) of coupled antigen. […] Association rates (kₒₙ) and dissociation rates (koff) were calculated using a simple one-to-one Langmuir binding model (ProteOn manager software version 2.1) by simultaneously fitting the association and dissociation sensorgrams. The equilibrium dissociation constant (KD) is calculated as the ratio koff/kₒₙ."}}, "note": "Substitutions are numbered along the chain they refer to."}
{"binder": "B1", "values": [{"measurement": "Kd", "setting": "[1]", "value": 1.8, "unit": "nM"}, {"measurement": "Kd", "setting": "[2]", "value": 180, "unit": "nM"}, {"measurement": "Kd", "setting": "[3]", "value": 17, "unit": "nM"}, {"measurement": "binding result", "setting": "[4]", "value": "binds"}]}
{"binder": "B2", "values": [{"measurement": "Kd", "setting": "[5]", "value": 0.29, "unit": "nM"}, {"measurement": "Kd", "setting": "[6]", "value": 1.9, "unit": "nM"}, {"measurement": "Kd", "setting": "[7]", "value": 0.21, "unit": "nM"}]}
{"binder": "B3", "values": [{"measurement": "binding result", "setting": "[8]", "value": "binds"}]}
